Assay: soluble on expression in E. coli; label from the status in PepcDB or PDB records

Sequence	soluble on expression in E. coli
MRILFIGDVVGSLGREALATYVPKLKKKYRPQVTIANGENAASGRGITGKIYKKFLQDGVDVVTMGNHTWDNKDIFEFIDDAKKMVRPANFPEDVPGQGMVFVKVNQLELAVINLQARTFMVPLEDPFKKAAELVAIARKRTPLIFVDFHGETTSEKQAMSWFLDGQVSAVVGTHTHVQTNDARILPKGTAFLSDVGMTGPYDGILGMKREPIIEKFMTALPKRFEVVETGRTILSACILEIDDQTGQAKMIEPIQISEDRPFQE	not soluble
MRILHTSDWHLGKNLEGYSRMDEQEEFLEDFIKIVEENNIDMVVIAGDIYDTYNPPARAEKMFYSTLKKISQNGERVTLVIAGNHDNPERLVAAGPLARDHGIIMVGTPKSVVPTGEYGKHKVLSSKEGFIEIEVNGERASIITLPYPSEKRLNEVLYEEMDSEEEKVKSYGDRIKQLFDRLSENFRDDTINMVVSHLFAMGSEEGGSERNVQLGGSFIVNGDCFPKNAQYVALGHVHKPQLVPGTHKIARYSGSPIQYNKKEINFKKKCFLVNIEAGKEPIVDEIEFKVYKPIEVWKCTGVEEAIKKCEENKDRDCWVYLEIVTDKYIGEEEMKAMKSLKKDILEILPKVSVDNEIIDMASFKERPFEEIFKEFYKKERKVEPDNEVVDLLLSIINGGEAEDETHKS	not soluble
MRIPLVGKDSIESKDIGFTLIHEHLRVFSEAVRQQWPHLYNEDEEFRNAVNEVKRAMQFGVKTIVDPTVMGLGRDIRFMEKVVKATGINLVAGTGIYIYIDLPFYFLNRSIDEIADLFIHDIKEGIQGTLNKAGFVKIAADEPGITKDVEKVIRAAAIANKETKVPIITHSNAHNNTGLEQQRILTEEGVDPGKILIGHLGDTDNIDYIKKIADKGSFIGLDRYGLDLFLPVDKRNETTLRLIKDGYSDKIMISHDYCCTIDWGTAKPEYKPKLAPRWSITLIFEDTIPFLKRNGVNEEVIATIFKENPKKFFS	soluble
MRITDVRTAVVEANYDWTFVRIYTDEGLTGLGESFLAPGLTGIIRDLKPLLVGQDPLDVDRLFSRMRWAASGAGSVAGLVYNAISGIEAALWDLAGKHYGVPVFRLLGGRHRDRVRVYADCHAGEALEALSSVMIPRRPRWLSPAGAPPPAGDPVHGRAFGLEEPGEAFTPEMYAARAREVAAMGFTALKFDLDVPNPHTLDPHSGTLTHAEIRHMVSLVEAVREAVGDGVDIAFDLHWRYNVSDAVRLACELEPYGLMWLEDPVPPENVEALRRVTRSTRTPIASGENLYLRHGFREALERGALDIAAPDLQKCGGLLEGRRIADMADAHYVAVAPHCIASPIGTVAAAHVAAAVPNFLALEWHGMSVPFWEEMAAGFDGPVIRDGYIEVPEAPGLGVELNEEVARRYAREGEPFF	soluble
MRKALKDSKRIVVKVGTSTLTYENGSVNLMRIEKLSRVISDICNMGKEVVLVSSGAIGVGVGKLRLEKKPETIREKQAVAAVGQCALMHIYNKFFGEYSHVVAQVLLTRDVLENERMKNNVCNTFDTLLEKGIIPIVNENDAISIDEIQNILNFGDNDNLSAIVSTLVNADTLIILSDIDGFYDSDPRTNEDSKMLKEVYEITPEIEECAGGAGSNRGTGGMVTKLSAAKVATSNGIDMILANGENPEILIDILNGEDIGTMFVAKKGELEHHHHHH	not soluble
MRKEGYKSGFVAIIGRPNVGKSTFLNRVIGQKIAIMSDKPQTTRNKIQGVYTDDDAQIIFIDTPGVHKPKHKLGDFMMKVALNALREVDLILFMVNAEEGFGRGEAFIIERLKEVDTPVFLVINKIDRVHPDELLPLIDRYKDLYPFAEIVPISALEGNNVDRLLEQIKERLPEGPQYYPPDQITDHPEQFIIAELIREKALHLTREEVPHSIAVVVERIERREGSPTVYISAVIVVERDSQKGIIIGKQGRMLKEIGQRARADIEALLGSRVFLELWVKVQKDWRNRLSQLRDFGFREDEY	soluble
MRKIIKGREPDAWLKYRCTPGAVYQRKPALADSLLLEQGYVCAYCEKRIDVQDLRVEHIKPRSQYPAQQLSYSNMVACCSGQSQGSAHCDCSKKDEEITLNLFTDALFLSISYKHDGTISSANKSWNDDINITLNLNCLSLKENRKLALEGLLEIIKKEDYSQGVLKRLKARYEAKDKGHKFAEYRGIILYYIDKKLSP	not soluble
MRKINTNKNDSQIYSRGFIMRNIRPSQLGQYIRRALRLHFIPVVLVAAPSVMANTNQETEQLETLVVTASALKVETPAQETPKALSIVTQEEIVARAPQKLDEALRYTSGVTAQPYGADNDTDWLKVRGFDAATYQDGSRLFRDGYYTWLIEPYALERIEVLKGPASILYGEAPPGGVVNAVQKKPTDIPQGEVGLQVGNDALRTLTLDISDYANQDGSVRYRLVALMKENDGQLNGTQTSRNYLAPSLSIDISEQTRLTLLASFLEDSGVPTNPFFPAAGTLIDSNFGHIDPSTNLGQPDYDKYERRQVSLGYLFEHDLNDVWALSQTFNYGDNDLYLRSSYAFSNDDPSKDTLTQGIVFRDGSTESLSLDNKAVAKWDSARVENTLLMGLELQRHQTQGVELDNYSFGTINPFNPNYGNFTPIDESSAADRTITKEQASLYAQYQIKLDQQWIGLIGGRMDWVDTENESQKNMQRKSRSDAEFSFNAGLMYLASNGVSPYLSYSQSFDVLSTIDSAKGELYKPLKGEQTEVGVKYQPEFYDGYINLAWFDITQQNALVTNPTTFVATQTGEMTAQGIEVESVGYVTDSLKLTASYTFTDAKTDETGGKGTQQAGLIPKHQASAWLDYDAAQLGLQGWTFGSGVRYIGESKDNPRSSDRTVPSVTLVDLMAGYEITENWQVQLNINNLFDREFVSGCDYWCYYGQSRSAVLSANYRW	not soluble
MRKISYRFVYNRKKSLNDRGTALVQVEAYLNKKKVYFSTHVYLRPEQWDVKRKIIKDHPNQDALNGMLNEFIIELEKKELSLWRQGKTITLSLIKEEFKSNTDASFLGFARKEIMSSQLKDSTKRNHLTTISLLQSFKPTIEFEDLTYNFVTDFEKNLYESGYQTNTVAKHMKHLKSFVNAAINKGYIDPNNYAFRRYKIKMKEGKHVFLLPEEMKKLEEVSLTGRNSCLEHTLDAFLFCCYTGLRYSDFVNLNEKNIVKMDGKLWLIFDSVKTGTEVKLPLNLLFEGKALTLLQKYQGKWSSFFSIK	not soluble
MRKKSSSNKEETALHPPPENFETATAELEQIVAGMETGQMSLEDALSAYKRGVELLQYCQNILKNSQQQIKILEADMLKHFSPAEHDAS	not soluble
MRKSRLSRYKQNKLIELFVAGVTARTATEPDSIVYTDCYRRYDVLDAGEFSHFRINHSTHFAERQNHINGIGNFWNRAKRHLRKFDGIPKEHFEPYLKECERRFLEHHHHHH	soluble
MRKVRIANEQTEESDIIKIVHLSDIHFSEAYYMPEIADSMLQIINESSPDIVIITGDLTENGFAAEYNGAKNFIDKIECKNKVIVPGNHDSKNAGYLFFEDIFKARSSSGYFGDVTVIGLDSSQPELDDGHIGRENYGWIESTFSTGSFKVFALHHHLIPIPKTGRGNNVLVDAGDVLELLDRSGVNLVLCGHWHIPWVWRLNDMFIISAGTVCSSKIRGKTSQCYNLIELETPESECTRWHLRITRVFSSGIKELVVDNIV	not soluble
MRLFFQHFLLFYAASAYNVSVNTNRSFLFGDVLEPLCSINVTGQNLTRSELIELFHKWEKYTSSQISSSSSISDYRKAMPCFPGPNLNLTSSNSDMIPQYPNCETFVNISKTTFGEANDLLEEVKKVRGVEQMDVSLKSVINSLSSRLQNLIDYLPDGATKNKTQERLSTLIEIGNQKLPETLRNSTRNQPPTQSTKSEFNPFELLSCFNISMMKTATVSGQTIGSIACSKFKLCSFSAVTSNPCLSNLRITEAQYDSVVNKTIAELIGEKLGGEQVQKKLGSAIGQFFGEHPRSKRTPKPRCENCTEEEYEDVTPLSDQVKMDGREELEESDDRSSGVESDESSGEVIDESYGKIDELDQEMSKRSTDSRKMSHEEITQAKIAKIRESIIDQLLTKTDDPDNSTDFQPTKRSAALEASQDNFKEALDNFRTEHIEDMTEGSGQESDRPTDSTKLYGSTQSPSEIIRPSIRTLNMETESSPVDFIENMSPISDSNDMDSSTVPNVAKKNNNFEKDLDAFRTVNNGSEKLNSSMFQELQTVLNLKLNSTMLEYAASFANISESLPKMSGEFTVSQFLQKMDINDWPTLKHLLNSMQSVFGNLPGFSQISNFIENLSSSGLDLKSVLKMIPAMNSSGTSLHKDAVLDLLNSFKSKISSSDTPKSPALEAAIQKISEASTLPTLLQNDLNSNDSSISDALNILKSNPLLSSLKI	soluble
MRLGVNVDHVATVRQARRTFEPSPVFAALIAQQAGADQITLHLREDRRHIQDRDLELIKELITIPVNLEMAPTEEMREIALRVKPDRITLVPERREEITTEGGLDVVSLKEKLKEYLKPIKEAGIEVSLFIEAQKEQIDASVEVGADAIEIHTGRYANLWNEHRFEEAKEELNRIKEAAIYAKEKGLKVYAGHGLTYHNVKDFVRELKGYVEELNIGHSIVANAVIFGFERAVKEMLNLIKT	soluble
MRLKDKAVLITGAAHGIGRATLELFAKEGARLVACDIEEGPLREAAEAVGAHPVVMDVADPASVERGFAEALAHLGRLDGVVHYAGITRDNFHWKMPLEDWELVLRVNLTGSFLVAKAASEAMREKNPGSIVLTASRVYLGNLGQANYAASMAGVVGLTRTLALELGRWGIRVNTLAPGFIETRMTAKVPEKVREKAIAATPLGRAGKPLEVAYAALFLLSDESSFITGQVLFVDGGRTIGAAPA	soluble
MRLRVDVIPGEHLAYPDVVLVVDVIRATTTAAAFLEAGAEALYWTPSLESALAFKDEDVVLAGETGGLKPPRFDLGNSPREALSAQVAGRVVVMSTTNGTKAAHAAARTAKHVLLASLYNAHAAARLARELATEEVAILCAGKEGRAGLDDLYTAGVLAEYLGFLGEVEPEDGARVALAVKRAYPDPLEALSLSAAALALKQVGLEADVPFCAQVAKSAAVPVLRGRVGEALIFKRA	soluble
MRLTNYSDYALRILTYLGLKREELSTITEIADCYGISRNHVVKIVHHLGQLGYVDTLRGKNGGIRLAHAPEKINIGEVIRHTETSMDIVECFSNQNSCIIGCSCVLRTAISEALSAFMAVLDDYTLADLIAPRRQLSRKLHVMQISDSLSD	not soluble
MRMLAAERRDHLLGLLARQGKIVAKDVAAELRISEDTVRRDLRDLASEGLCQRVYGGALPVSPAVADYGARRTVAPDGKRKVASAAAGLVRPGGVVILDGGTTALAVVHALPEDLDCTVITHSPTIAAALLDHPRAEVFVLGGRLFKHSAVACGAAAVEAAQNVSADLFLLGVTGVHLEAGLTTGDAEDAAMKRALAARAADTYVLASSEKIGTASRYRVLPWEEISGLVTDTPPHDPVIEQLTAGGVDVLAADAAALEHHHHHH	not soluble
MRNIAEAYFQNMVETATPLEQIILLYDKAIECLERAIEIYDQVNELEKRKEFVENIDRVYDIISALKSFLDHEKGKEIAKNLDTIYTIILNTLVKVDKTKEELQKILEILKDLREAWEEVKKKVHHHHHH	soluble
MRNIQIALTKGRLEKHVIPLFEQIGIDCSELKNKGRKLVFQSKNTDISFILVKAVDVATYVEHGVADIGVVGKDILMENEKDIYEMLDLGVGVCKFCVASIPTYNPKSYRKKCIATKYPHITSNYFHNKGEDVEIIKIEGSVEIAPILGLADAIVDIVETGKTLQENGLIVFEEMYSISARMIVNKAALKTKKDEIFSIINMMEQEILSGK	not soluble
MRNIQPRRLVTASGQPIVIRTAWPEDAERIVAFVKAVTAEALYLLTTEAEVTVTEDQQRQWLQKMADDPGKLALLAEHDGEMIGFLDFHNGNKRFRHEREKRLSRPGDRHGVACSAP	not soluble

— the DeepSol protein solubility set
